The results in this text go back to patent US11686724B2, “Compositions comprising gamma 9 delta 2 T-cell receptors and methods of use thereof to treat cancer” (Gadeta B.V., priority 2012, dated 2023).

The test system of data set [1] is Daudi. Nature of the data set: IFNγ ELISA of γ9δ2TCR-transduced T-cells against Daudi in the presence of pamidronate. In kind it is cell-based. Particulars: CD4+ transduced T-cells, pamidronate titration; for IFNγ secretion (max.): FIG. 1B. On the set-up: IFNγ secretion (max.): unit not given here. The procedure: (§1) 51Chromium-release assay for cell-mediated cytotoxicity was previously described. Target cells were labeled overnight with 100 μCu 51Cr (150 μCu for primary cells) and incubated for 5 h with transduced T-cells in five effector-to-target ratios (E:T) between 30:1 and 0.3:1. Fold change was calculated when compared to reactivity of engineered T-cells expressing unmutated γ9δ2TCR. IFN-γ ELISpot was performed using anti-hulFN-γmAb1-D1K (I) and mAb7-B6-1 (II) (Mabtech-Hamburg, Germany) following the manufacturer's recommended procedure. Target and effector cells (E:T 3:1) were incubated for 24 h in the presence of pamidronate (Calbiochem, Germany) where indicated. IFNγ ELISA was performed using ELISA-ready-go! Kit (eBioscience) following manufacturer's instructions. Effector and target cells (E:T 1:1) were incubated for 24 h in the presence of pamidronate as indicated. Where specified, fold change was calculated when compared to reactivity of engineered T-cells expressing unmutated γ9δ2TCR.
IFN-γELISA was performed using ELISA-ready-go! Kit (eBioscience) following manufacturers' instructions. Effector and target cells (E:T 1:1) were incubated for 24 h in the presence of pamidronate as indicated. Where specified, fold change was calculated based on IFN-γ secretion γ9-G115wt/6δ-G115wt transduced T-cells normalized to 1; for the side by side experiments based on γ9-3wt/δ9-3wt, γ9-5wt/69-5wt or γ9-G115wt/δ9-G115wt normalized to 1.
A general note: ELISA stands for enzyme-linked immunosorbent assay.

Data set [2] can be described thus: Allo-reactivity of γ9δ2TCR-transduced T-cells. In kind it is cell-based.
Data set [3] relates to healthy CD34+ progenitor cells. The data set is described as follows: IFNγ ELISpot against healthy CD34+ progenitor cells. In kind it is cell-based. Particulars: FIG. 5C. The procedure: as §1
Mabtech (Hamburg, Germany) following manufactures' recommended procedure (Besold et al., 2007). In all assays target and effector cells (E:T 3:1) were incubated for 24 h in the presence of pamidronate (Calbiochem, Germany) where indicated. […]

The test system of the next data set is Daudi-luciferase. Nature of the data set: Daudi-luciferase xenograft in Rag2−/−γc−/− mice, adoptive transfer of engineered T-cells. In kind it is in vivo. Here is the method: (§2) To induce tumour xenografts, sublethal total body irradiated (2 Gy), 11-17 weeks old RAG-2−/−/yc−/−-BALB/C mice were injected i.v. with 0.5×10^6 Daudi-Luc cells (a kind gift from Genmab Utrecht, The Netherlands) or 5×10^6 RPM I8226/S-Luc cells (Anton Martens, Utrecht, The Netherlands) together with 10^7 γ9δ2TCR+ transduced T-cells. The RAG−2^−/^−yc^−/−-BALB/C mice were originally obtained from AMCAS b.v. (Amsterdam, the Netherlands). Mice were bred and housed in the specific pathogen-free (SPF) breeding unit of the Central Animal Facility of the University of Utrecht. All animal experiments were conducted according to Institutional Guidelines after acquiring permission from the local Ethical Committee for Animal Experimentation, and in accordance with current Dutch laws on Animal Experimentation. All mice developed tumours, mainly growing in the bone marrow visualized in vivo once a week by Biospace bioluminescent imaging. […] Bioluminescence images were acquired using a third generation cooled GaAs intensified charge-coupled device camera, controlled by the Photo Vision software and analyzed with M^3Vision software (all from Photon Imager; Biospace Laboratory). […] Bioluminescence images were acquired and analyzed with M3Vision software (Photon Imager, Biospace Laboratory). […]

A further data set relates to RPMI8226/S-luciferase. The data set is described as follows: RPMI8226/S-luciferase xenograft in Rag2−/−γc−/− mice, adoptive transfer of engineered T-cells. In kind it is in vivo. Particulars: day 35, n=7, one i.v. injection of 10^7 T-cells. The procedure:
as §2

The subject of data set [4] is Daudi. Nature of the data set: 51Cr-release assay of γ9δ2TCR-transduced T-cells against Daudi. In kind it is cell-based. Particulars: FIG. 1A, E:T 3:1, 5 h. Here is the method: as §1
^51Chromium-release assay for cell-mediated cytotoxicity was previously described (Kuball et al., 2004). […] After 4-6 h ^51Cr-release was measured in the supernatant. Fold change was calculated based on ^51Cr-release of γ9-G115wt/69-G115wt transduced T-cells normalized to 1; for side by side experiments based on γ9-3wt/δ9-3wt, γ9-5wt/δ9-5wt or γ9-G115wt/69-G115wt normalized to 1.

B1: γ9-G115/δ2-G115: reference γ9δ2TCR of clone G115, γ9 chain SEQ ID NO.1 and δ2 chain SEQ ID NO.2, control (protein, listed as Homo sapiens)
chain 1: MVSLLHASTLAVLGALCVYGAGHLEQPQISSTKTLSKTARLECVVSGITISATSVYWYRERPGEVIQFLVSISYDGTVRKESGIPSGKFEVDRIPETSTSTLTIHNVEKQDIATYYCALWEAQQELGKKIKVFGPGTKLIITDKQLDADVSPKPTIFLPSIAETKLQKAGTYLCLLEKFFPDVIKIHWEEKKSNTILGSQEGNTMKTNDTYMKFSWLTVPEKSLDKEHRCIVRHENNKNGVDQEIIFPPIKTDVITMDPKDNCSKDANDTLLLQLTNTSAYYMYLLLLLKSVVYFAIITCCLLRRTAFCCNGEKS
chain 2: MERISSLIHLSLFWAGVMSAIELVPEHQTVPVSIGVPATLRCSMKGEAIGNYYINWYRKTQGNTMTFIYREKDIYGPGFKDNFQGDIDIAKNLAVLKILAPSERDEGSYYCACDTLGMGGEYTDKLIFGKGTRVTVEPRSQPHTKPSVFVMKNGTNVACLVKEFYPKDIRINLVSSKKITEFDPAIVISPSGKYNAVKLGKYEDSNSVTCSVQHDNKTVHSTDFEVKTDSTDHVKPKETENTKQPSKSCHKPKAIVHTEKVNMMSLTVLGLRMLFAKTVAVNFLLTAKLFFL
As to B1, the “IFNγ secretion (max.)” value with Daudi [1] came out at 800. Also, in the data set on Daudi [1] (FIG. 1D), the “IFNγ production (max.)” value turned out to be 800 pg/mL. For the same molecule, in data set [2], the “allo-reactivity compared to mock-transduced cells” value is reported as “nearly abolished”. In addition, the “recognition of CD34+ progenitor cells” value in data set [3] is listed as “not recognized”. For the same molecule, the “tumour outgrowth by bioluminescence imaging” value in the data set on Daudi-luciferase (Daudi, day 42, n=4, one i.v. injection of 10^7 T-cells) was 180.000 counts/min; with RPMI8226/S-luciferase, 210.000 counts/min. Moreover, the “protection against tumour growth (BLI)” value in the data set with Daudi-luciferase (one T-cell infusion, FIGS. 6A and 6B (Daudi and RPMI8226/S)) is on record as “loss of protection”.

B2: γ9-cl3/δ2-cl3: wildtype γ9δ2TCR of T-cell clone 3 (SEQ ID 8 and 10) (protein, listed as Homo sapiens)
chain 1: MVSLLHASTLAVLGALCVYGAGHLEQPQISSTKTLSKTARLECVVSGITISATSVYWYRERPGEVIQFLVSISYDGTVRKESGIPSGKFEVDRIPETSTSTLTIHNVEKQDIATYYCALWEEELGKKIKVFGPGTKLIITDKQLDADVSPKPTIFLPSIAETKLQKAGTYLCLLEKFFPDVIKIHWEEKKSNTILGSQEGNTMKTNDTYMKFSWLTVPEKSLDKEHRCIVRHENNKNGVDQEIIFPPIKTDVITMDPKDNCSKDANDTLLLQLTNTSAYYMYLLLLLKSVVYFAIITCCLLRRTAFCCNGEKS
chain 2: MERISSLIHLSLFWAGVMSAIELVPEHQTVPVSIGVPATLRCSMKGEAIGNYYINWYRKTQGNTMTFIYREKDIYGPGFKDNFQGDIDIAKNLAVLKILAPSERDEGSYYCACDLLGYTDKLIFGKGTRVTVEPRSQPHTKPSVFVMKNGTNVACLVKEFYPKDIRINLVSSKKITEFDPAIVISPSGKYNAVKLGKYEDSNSVTCSVQHDNKTVHSTDFEVKTDSTDHVKPKETENTKQPSKSCHKPKAIVHTEKVNMMSLTVLGLRMLFAKTVAVNFLLTAKLFFL
Take B2: the “IFNγ secretion (max.)” value with Daudi [1] stood at 600. Moreover, the “reduced ability to lyse tumour cells vs control γ9-G115wt/δ2-G115wt” value in the data set on Daudi [4] is 50%.
